This note sets out measurements from the nanobody polyreactivity screen of Harvey et al. (2022).

The nature of the data set: yeast display, Sf9 membrane polyspecificity reagent, FACS + sequencing; frameworks hold sequencing errors. An outline of the steps: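 In a synthetic yeast display library (Saccharomyces cerevisiae BJ5465), nanobody expression was induced with galactose for 36–48 hours. FACS gates were set low and high (top ~1%) using anti-HA fluorescence for expression and streptavidin fluorescence for binding of the Sf9 membrane reagent. Each polyreactivity label is drawn from the gate of origin.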
For “QVQLVESGGGLVQAGGSLRLSCAASGRTFAFNAMGWYRQAPGKERELVATISWSGGSTYYADSVKGRFTISRDNAKNTVYLQMNSLKPEDTAVYYCAKVVRGSNDYDYWGQGTQVTVSS”, the “polyreactivity (PSR sort gate)” value is “high polyreactivity”.
As for “QVQLVESGGGLVQAGGSLRLSCAASGRTFAFYAMGWYRQAPGKERELVASISSSGDRTYYADSVKGRFTISRVNAKNTVYLQMNSLKPEDTAVYYCAARWRYTYYYWGQGTQVTVSS”, the entry is “high polyreactivity”; as for “QVQLVESGGGLVQAGGSLRLSCAASGRTFAGNAMGWYRQAPGKEREFVASITASGVNTYYADSVKGRFTISRDNAKNTVYLQMNSLKPEDTAVYYCNKRNRWTPFYTYDYWGQGTQVTVSS”, “low polyreactivity”.
Next, “QVQLVESGGGLVQAGGSLRLSCAASGRTFAGYAMGWYRQAPGKERELVAAISGSGGRTYYADSVKGRFTISRDNAKNTVYLQMNSLKPEDTAVYYCAASQRVYIARSDYWGQGTQATVSS”: “high polyreactivity”; “QVQLVESGGGLVQAGGSLRLSCAASGRTFAGYAMGWYRQAPGKERELVAGIRRSGDSTYYADSVKGRFTISRDNAKNTVYLQMNSLKPEDTAVYYCAAAPISKYGPYRGTGYRMGYWGQGTQVTVSS”: “high polyreactivity”.
As for “QVQLVESGGGLVQAGGSLRLSCAASGRTFAGYTMGWYRQAPGKERELVAAITKSGGSTYYADSVKGRFTISRDNEKNTVYLQMNSLKPEDTAVYYCAARYIPSRYGTGCGYYSWGQGTQVTVSS”, the entry is “high polyreactivity”; as for “QVQLVESGGGLVQAGGSLRLSCAASGRTFAHNAMGWYRQAPGKERELVAAITWSGGTTYYADSVKGRFTISRDNAKNTVYLHMNSLKPEDTAVYYCNTYSYQPDPKYDYWGQGTQVTVSS”, “low polyreactivity”.
Take “QVQLVESGGGLVQAGGSLRLSCAASGRTFAHNAMGWYRQAPGKERELVAAITWSGGTTYYADSVKGRFTISRDNAKNTVYLQMNSLKPEDTAVYYCNTYSYQPDPKYDYWGQGTQVTVSS”: the “polyreactivity (PSR sort gate)” value was “low polyreactivity”.
As for “QVQLVESGGGLVQAGGSLRLSCAASGRTFAIYAMGWYRQAPGKERELVAAIRKRGSITYYADSVKGRFTISRDNAKNTVYLQMNSLKPEDTAVYYCAVDYWGQGTQVTVSS”, the entry is “high polyreactivity”.
On to “QVQLVESGGGLVQAGGSLRLSCAASGRTFAIYTRGWYRQAPGKERELVASITSSGASTYYADSVKGRFTISRDNAKNTVYLQMNSLKPEYTAVYYCAAGWYQGFDYWGQGTQVTVSS”, for which the “polyreactivity (PSR sort gate)” value is reported as “high polyreactivity”.
As for “QVQLVESGGGLVQAGGSLRLSCAASGRTFAKYAMGWYRQAPGKEREWVAAINSSGGSTYYADSVKGRFTISRDNAKNTVYLQMNSLKPEDTAVYYCAKEYYSYDVYLGVSYVGRYDYWGQGTQVTVSS”, the entry is “low polyreactivity”; as for “QVQLVESGGGLVQAGGSLRLSCAASGRTFANYAMGWYRQAPGKERELVAAISSGGNTYYADSVKGRFTISRDNAKNTVYLQMNSLKPEDTAVYYCNAPWYYRYQRNEYGYWGQGTQVTVSS”, “high polyreactivity”; as for “QVQLVESGGGLVQAGGSLRLSCAASGRTFAQNAMGWYRQAPGKERELVAAISSGGGRTYYADSVKGRFTISRDNAKNTVFLQMNSLKREDTAVYYCAAQGWLSYRYSPLKFGYWGQGTQVTVSS”, “high polyreactivity”.
Next, “QVQLVESGGGLVQAGGSLRLSCAASGRTFAQYTMGWYRQAPGKERELVAGIDWSGGNTYYADSVKGRFTISRDNAKNTVYLQMNSLKPEDTAVYYCAAVPAFYNAWGEDYEYWGQGTQVTVSS”: “low polyreactivity”; “QVQLVESGGGLVQAGGSLRLSCAASGRTFARNAMGWYRPAPGKERELVAAIPRSGGSTYYADSVKGRFTISRDNAKNTVYLQMNSLKPEDTADYYCAAVGTGSSLRYDYWGQGTQVTVSS”: “high polyreactivity”.
Next, “QVQLVESGGGLVQAGGSLRLSCAASGRTFARNAMGWYRQAAGKERELVAAITSIGTRTYYADAVKGRFTISRDNAKNTVYLQMNSLKPEDTAVYYCNKKRTADYDYWGQGTQVSVSS”: “low polyreactivity”.
In the case of “QVQLVESGGGLVQAGGSLRLSCAASGRTFARYAMGWYRQAPGKERELVAAISRGGTTNYADSVKGRFTISRDNAKNTVYLQMNSLKPEDTAVYYCNRDFHLIHLSSARLDYWGQGTQVTVSS”, the “polyreactivity (PSR sort gate)” value was “low polyreactivity”.
With “QVQLVESGGGLVQAGGSLRLSCAASGRTFARYAMGWYRQAPGKERELVAAITRRGGSTYYADSVKGRFTISRDNAQNTVYLQMNSLKPEDTAVYYCAVPWYTRESGAYDYWGQGTQVTVSS”, the “polyreactivity (PSR sort gate)” value is reported as “high polyreactivity”.
As for “QVQLVESGGGLVQAGGSLRLSCAASGRTFARYAMGWYRQAPGKERELVARISSGGSTYYADSVKGRFTISRDNAKNTVYLQMNSLKPEDTAVYYCAASGWRYRYDYWGQGTQVTVSS”, the entry is “high polyreactivity”; as for “QVQLVESGGGLVQAGGSLRLSCAASGRTFARYGMGWYRQAPGKERELVATINWRSAGSTYYADSVKGRFTISRDNAKNTVYLLMNSLKPEDTAVYYCNVDSGRSYRVARYDYWGQGTQVTVSS”, “low polyreactivity”.
As for “QVQLVESGGGLVQAGGSLRLSCAASGRTFARYTMGWYRQAPGKERELVASITRGGSTYYADSVKGRFTISRDNAKNTVYLQMNSLKPEDTAVYYCAARFPQHNYWAMDYWGQGTQVTVSS”, the entry is “high polyreactivity”.
Next, “QVQLVESGGGLVQAGGSLRLSCAASGRTFASNAMGWYRQAPGKERELVAAISVTGGRTYYADSVKGRFTISRDNAKNTVYLQMNRLKPEDTAVYYCAKDLTLFSGPFPEFGYWGQGTQVTVSS”: “low polyreactivity”; “QVQLVESGGGLVQAGGSLRLSCAASGRTFASYAMGWYRQAPGKERELVASIRYSGGSTHYADSVKGRFTISRDNAKNTVYLQMNSLKPEDTAVNYCNARPKFRTYNYWGQGTQVTVSS”: “high polyreactivity”; “QVQLVESGGGLVQAGGSLRLSCAASGRTFASYAMGWYRQAPGKERELVAVISRGGSNTNYADSVKGRFTISRDNAKNTVYLQLNSLKPEDTAVYYCADLAFKRYNPGGYDYWGQGTQVTVSS”: “high polyreactivity”.
In the case of “QVQLVESGGGLVQAGGSLRLSCAASGRTFASYDMGWYRQEPGKERELVAAISVSGDSTYYADSVKGRFTISRDNAKNTFYLQMNSLKPEDTAVYYCNAEAQDYDHDYWGQSTQVTVSS”, the “polyreactivity (PSR sort gate)” value is recorded as “low polyreactivity”.
On to “QVQLVESGGGLVQAGGSLRLSCAASGRTFASYGMGWYRQAPGKHRELVASITRRGGSTYYADSVKGRFTISRDNAKNTVYLQMNSLKPEDTAVYYCAATRVRSASYSIEYDYWGQGTQVTVSS”, for which the “polyreactivity (PSR sort gate)” value is “high polyreactivity”.
Next, “QVQLVESGGGLVQAGGSLRLSCAASGRTFAVYAMGWYRPAPGKERELVAGITSGGSTNYADSVKGRFTISRDNAKNTVYLQMNSLKPEDTAVYYCAAENVYAGFGFVSIGDYWGQGTQVTVSS”: “low polyreactivity”; “QVQLVESGGGLVQAGGSLRLSCAASGRTFAVYAMGWYRQAPGKERELDAAITYGGGRTYYADSVKGRFTISRDNAKNTVYLQMYSLKPEDTAVYYCAADYYGTDYDYWGQGTQVTVSS”: “low polyreactivity”.
Next, “QVQLVESGGGLVQAGGSLRLSCAASGRTFAVYSMGWYRQATGKERELVAVISSGGGTDYADSVKGRFRISRDNAKNTVYLQMNSLNPEDTAVYYCAADSVTFLATQPGDYWGQGTQVTVSS”: “low polyreactivity”.
Next, “QVQLVESGGGLVQAGGSLRLSCAASGRTFAVYTMGWYRQAPGKERELVARIRYSGGNTYYADSVKGRFTISRENAKNTVYLQMNSLKPEDTAVYYCAARSRYRIYASRNFDYWGQGTQVTVSS”: “high polyreactivity”; “QVQLVESGGGLVQAGGSLRLSCAASGRTFAWYAMGWYIEAPGKERELVAAISSGGSTYYADSVKGRFTISRDNAKNTVYLQMNSLKPEDTAVYYCATRYAIAGWVGYYYWGQCTQVTVSS”: “low polyreactivity”.
As to “QVQLVESGGGLVQAGGSLRLSCAASGRTFAWYAMGWYRQAPGKERELVAAISNVGSTYYADSVKGRFTISRDNAKNTVYLHMNSLKPEHTAVYYCNADAVSTDGREYWGQGTQVTVSS”, the “polyreactivity (PSR sort gate)” value is recorded as “low polyreactivity”.
Next, “QVQLVESGGGLVQAGGSLRLSCAASGRTFAWYAMGWYRQAPGKERELVAAISWSSDTTYYADSVKGRFTISRDNAKNTVYLQMNSLKPEDTAVYYCAAVFQGYTRKYYYWGQGTQVTVSS”: “high polyreactivity”; “QVQLVESGGGLVQAGGSLRLSCAASGRTFAWYTMGWYRQAPGKERELVAAISGSGGSTYYADSVKGRFTISRDNAKNTVYLQMNSLKPEDTAVYYCARRVDSYYGHTRYYYWGQGTQVTVSS”: “high polyreactivity”; “QVQLVESGGGLVQAGGSLRLSCAASGRTFAWYTMGWYRQAPGKERELVAAISGSGGSTYYADSVKGRFTISRDNAKNTVYLQRKSLKPEDTAVYYCARRVHSYYGHTRYYYWGQGTQVTVSS”: “high polyreactivity”.
As for “QVQLVESGGGLVQAGGSLRLSCAASGRTFAWYTMGWYRQAPGKESELVAAISGSGGSTYYADSVKGRFTISRDNANNTVYLQMNSLKPDDTAVYYCARRVDSYYGHTRYYYWGQGTQVTVSS”, the entry is “high polyreactivity”; as for “QVQLVESGGGLVQAGGSLRLSCAASGRTFAYNTMGWYRQAPGKERELVAAITSGGNTYYADSVKGRFTISRDNAKNTVYLQMNSLKPEDTAVYYCARYFTARLEGGYWGQGTQVTVSS”, “high polyreactivity”.
Take “QVQLVESGGGLVQAGGSLRLSCAASGRTFAYNTMGWYRQAPGKERELVARINSGTSTYYADSVKGRFTISRDNAKNTVYLEMNSLKPEDTAVYYCAARGSDYIRWYVGGRYGYWGQGSQVTVSS”: the “polyreactivity (PSR sort gate)” value is “low polyreactivity”.
As for “QVQLVESGGGLVQAGGSLRLSCAASGRTFAYYAMGWYRQAPGKERELVAAISGNGGRTYYADSVKGRFTISRDNAKNTVYLQMNSLKPEDTAVYYCNAAVGYYSYSYYTKVGVDYWGQGSQVTVSS”, the entry is “high polyreactivity”.
Next, “QVQLVESGGGLVQAGGSLRLSCAASGRTFAYYAMGWYRQAPGKERELVAAITRGGSTYYADSVKGRFTISRDNAKNTVYLQMNSLKPEDTAVYYCATLYTRYDSYLVKGKYGYWGQGTQVIVSS”: “high polyreactivity”; “QVQLVESGGGLVQAGGSLRLSCAASGRTFCGYTMGWYRQAPGKERELVAAITKRGGSTYYADSVKGRFTISRDNAKNTVYLQMNSLKPEDTAVYYCAKTKTAGTIKYDYWGQGTQVTVSS”: “high polyreactivity”.
